Measurements published in the supplement of paper PMC10724198.
± gives the standard deviation of the averaged measurements.

Legend:
[1] = tested on: Saccharomyces cerevisiae; test: protein stability index of tFT-peptide fusion (C-terminal peptide) (PSI (0-1 scale)); higher = more stable (slower turnover)
Description: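 MPS profiling in S. cerevisiae of the tFT-X12 degron library: putative degron peptides plus stable controls, 12 aa, fused to the C-terminus of a sfGFP-mCherry timer. Cells are FACS-sorted into 8 mCherry/sfGFP bins and deep-sequenced. PSI runs from 0 (unstable) to 1 (stable). Backgrounds are wild type, das1Δ and doa10Δ at 30 °C, and wild type, das1Δ, cdc34-1 and cdc53-1 at 37 °C; 2-3 technical replicates each.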

[2] = tested on: Saccharomyces cerevisiae; test: as above; conditions: genetic background: wild type; temperature: 30 C
[3] = genetic background: cdc34-1, temperature: 37 C
[4] = genetic background: cdc53-1, temperature: 37 C
[5] = genetic background: das1 deletion, temperature: 30 C
[6] = genetic background: das1 deletion, temperature: 37 C
[7] = genetic background: doa10 deletion, temperature: 30 C
[8] = genetic background: wild type, temperature: 30 C
[9] = genetic background: wild type, temperature: 37 C
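Also: PSI is a weighted mean of sequencing reads over stability bins, variants kept only with over 10 reads, mCherry proximal and sfGFP distal, peptide attached via GGGS linker.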

| Sequence | protein stability index [2] | further results |
| --- | --- | --- |
| APLPPVCPSPSL | – | protein stability index [1, 3]: 0.667 ± 0.081; protein stability index [1, 4]: 0.72 ± 0.015; protein stability index [1, 5]: 0.655 ± 0.0086; protein stability index [1, 6]: 0.713 ± 0.019; protein stability index [1, 7]: 0.679 ± 0.052; protein stability index [1, 8]: 0.657 ± 0.018; protein stability index [1, 9]: 0.72 ± 0.01 |
| GGCGFVWWRLLG | – | protein stability index [1, 3]: 0.544 ± 0.023; protein stability index [1, 4]: 0.6932 ± 0.0055; protein stability index [1, 5]: 0.622 ± 0.033; protein stability index [1, 6]: 0.752 ± 0.0098; protein stability index [1, 7]: 0.125 ± 0.0054; protein stability index [1, 8]: 0.144 ± 0.033; protein stability index [1, 9]: 0.199 ± 0.022 |
| GLLMCNPLLHSI | – | protein stability index [1, 3]: 0.66632 ± 0.00053; protein stability index [1, 4]: 0.734 ± 0.0075; protein stability index [1, 5]: 0.674 ± 0.038; protein stability index [1, 6]: 0.727 ± 0.03; protein stability index [1, 7]: 0.589 ± 0.032; protein stability index [1, 8]: 0.614 ± 0.011; protein stability index [1, 9]: 0.704 ± 0.016 |
| PPPPPSARSPFR | – | protein stability index [1, 3]: 0.649 ± 0.043; protein stability index [1, 4]: 0.726 ± 0.012; protein stability index [1, 5]: 0.633 ± 0.027; protein stability index [1, 6]: 0.7402 ± 0.0063; protein stability index [1, 7]: 0.603 ± 0.03; protein stability index [1, 8]: 0.602 ± 0.0097; protein stability index [1, 9]: 0.695 ± 0.004 |
| FCLRQPMLRFFI | – | protein stability index [1, 3]: 0.586 ± 0.027; protein stability index [1, 4]: 0.595 ± 0.012; protein stability index [1, 5]: 0.562 ± 0.037; protein stability index [1, 6]: 0.639 ± 0.0057; protein stability index [1, 7]: 0.479 ± 0.03; protein stability index [1, 8]: 0.442 ± 0.028; protein stability index [1, 9]: 0.54348 ± 9.7e-05 |
| DNTVWLRLVTSC | – | protein stability index [1, 3]: 0.32 ± 0.052; protein stability index [1, 4]: 0.506 ± 0.011; protein stability index [1, 5]: 0.402 ± 0.017; protein stability index [1, 6]: 0.565 ± 0.013; protein stability index [1, 7]: 0.0752 ± 0.013; protein stability index [1, 8]: 0.0895 ± 0.015; protein stability index [1, 9]: 0.0768 ± 0.016 |
| GAVGGWGWVSFV | – | protein stability index [1, 3]: 0.683 ± 0.049; protein stability index [1, 4]: 0.7583 ± 0.0075; protein stability index [1, 5]: 0.603 ± 0.034; protein stability index [1, 6]: 0.771 ± 0.01; protein stability index [1, 7]: 0.3855 ± 0.0037; protein stability index [1, 8]: 0.397 ± 0.0083; protein stability index [1, 9]: 0.595 ± 0.092 |
| GGGRGGRWGRLC | – | protein stability index [1, 3]: 0.65 ± 0.042; protein stability index [1, 4]: 0.743 ± 0.016; protein stability index [1, 5]: 0.654 ± 0.013; protein stability index [1, 6]: 0.7395 ± 0.007; protein stability index [1, 7]: 0.188 ± 0.018; protein stability index [1, 8]: 0.214 ± 0.024; protein stability index [1, 9]: 0.483 ± 0.012 |
| LSLCFGPFFYFP | – | protein stability index [1, 3]: 0.679 ± 0.072; protein stability index [1, 4]: 0.7329 ± 0.0056; protein stability index [1, 5]: 0.64 ± 0.029; protein stability index [1, 6]: 0.711 ± 0.03; protein stability index [1, 7]: 0.64 ± 0.042; protein stability index [1, 8]: 0.6242 ± 0.0027; protein stability index [1, 9]: 0.704 ± 0.046 |
| RVIESRWFNRLC | – | protein stability index [1, 3]: 0.587 ± 0.033; protein stability index [1, 4]: 0.72 ± 0.015; protein stability index [1, 5]: 0.656 ± 0.025; protein stability index [1, 6]: 0.7405 ± 0.0048; protein stability index [1, 7]: 0.0884 ± 0.011; protein stability index [1, 8]: 0.121 ± 0.019; protein stability index [1, 9]: 0.229 ± 0.018 |
| IIIVGSWSGGGG | 0.663 ± 0.025 | – |
| PIPPPPPPPPDP | 0.652 ± 0.017 | – |
| RCVLWSVLSTQV | 0.672 ± 0.042 | – |
| VLSVETGTSGLF | 0.655 ± 0.01 | – |
| DDDHRKITGTSR | 0.707 ± 0.091 | – |
| LWGPGAVWGRGR | 0.699 ± 0.049 | – |
| RGSGSGTRCRRS | 0.682 ± 0.11 | – |
| GGGAGRSWFVGC | 0.711 ± 0.042 | – |
| LPPPFPWSPSGP | 0.698 ± 0.066 | – |
| TFHCGPFRLFSC | 0.6545 ± 0.0055 | – |
| GFGGWIVCLGGG | 0.669 ± 0.0096 | – |
| CLRKKYSNTLLM | 0.647 ± 0.028 | – |
| QDECPRTTQGRV | 0.656 ± 0.04 | – |
| KHRKSKEIRTAR | 0.6844 ± 0.0065 | – |
| TSNRLDVDFPLS | 0.699 ± 0.0087 | – |

| Sequence | protein stability index [2] | further results |
| --- | --- | --- |
| PPTPPAFPPLLA | 0.662 ± 0.03 | – |
| MENEDYIVRKKK | 0.73 ± 0.054 | – |
| KRGRAIVVQLWV | 0.578 ± 0.021 | – |
| MFGTVVFGAHRR | 0.749 ± 0.015 | – |
| AIGDLQKAVPLM | 0.718 ± 0.047 | – |
| NFNRKTNGVFRS | 0.693 ± 0.059 | – |
| RVGGGSGGEGRG | 0.6553 ± 0.0043 | – |
| SKLTRHVDLHGS | 0.6898 ± 0.0017 | – |
| LPYHSSPPSSSP | 0.702 ± 0.046 | – |
| INVNNENLRGTE | 0.663 ± 0.072 | – |
| MRLTLGSHMAYY | 0.69 ± 0.082 | – |
| NKRSNIKVSDQR | 0.691 ± 0.03 | – |
| FGVGSITDEELD | 0.735 ± 0.036 | – |
| PHPTTPPAPRPR | 0.728 ± 0.0095 | – |
| IQAERKKSYKDT | 0.616 ± 0.075 | – |
| PPDHLTHPHIVN | 0.693 ± 0.013 | – |
| SPPPIPPPPPSR | 0.726 ± 0.042 | – |
| GGGGTGTSGQGR | 0.718 ± 0.046 | – |
| PPAAPSPPPPRP | 0.719 ± 0.012 | – |
| GGGARPTLDRAR | 0.637 ± 0.028 | – |
| SLRPRPSLFPPP | 0.7196 ± 0.00099 | – |
| QFVLWPSVLGLG | 0.648 ± 0.054 | – |
| GLEFTAFRLRFL | 0.667 ± 0.068 | – |
| KKKKNNKKKKIE | 0.702 ± 0.015 | – |
| GRGTGGKGRRGS | 0.693 ± 0.015 | – |

| Sequence | protein stability index [2] | further results |
| --- | --- | --- |
| PSAFPAPPLRCS | 0.686 ± 0.027 | – |
| ERKKPKKKRMRY | 0.706 ± 0.011 | – |
| CPGNGVFYSGRG | 0.679 ± 0.014 | – |
| FQLFLPPFRLPP | 0.801 ± 0.18 | – |
| GDFILLCDFDPI | 0.712 ± 0.09 | – |
| SSPARASLTRPA | 0.674 ± 0.038 | – |
| LVVTTLQSVVLG | 0.559 ± 0.085 | – |
| RKKRNKTQTSKT | 0.6936 ± 0.00054 | – |
| SMVRYNDFPRPL | 0.689 ± 0.081 | – |
| GLVLILRLFSRG | 0.494 ± 0.056 | – |
| GVSAPRFPGALA | 0.69 ± 0.01 | – |
| PPLPLLSTCAGA | 0.69 ± 0.15 | – |
| GRSFRQWRDSGS | 0.718 ± 0.066 | – |
| PPPPHCPQPPPP | 0.72 ± 0.018 | – |
| SPRLDPLFRSPP | 0.712 ± 0.017 | – |
| PYPSPLPPAPTP | 0.748 ± 0.015 | – |
| KNVHKDNRSVKK | 0.677 ± 0.14 | – |
| FQSSSKSRPRPA | 0.669 ± 0.057 | – |
| VCGQRLKDVGVG | 0.499 ± 0.037 | – |
| EVTSQGWRNGVD | 0.742 ± 0.028 | – |
| PVPPPPPSLHPP | 0.636 ± 0.023 | – |
| YWSTNGRCLMVL | 0.581 ± 0.017 | – |
| AGSSQWSLGQLG | 0.6345 ± 0.002 | – |
| ASAWHGLVFPPF | 0.779 ± 0.01 | – |
| VFCFRFLSFCPW | 0.542 ± 0.026 | – |

| Sequence | protein stability index [2] | further results |
| --- | --- | --- |
| SRSPPPPALPPL | 0.702 ± 0.05 | – |
| KKKKKKNSEKMK | 0.704 ± 0.062 | – |
| SSPPPPPRPAPT | 0.681 ± 0.15 | – |
| PGSLVLSVVDLV | 0.683 ± 0.056 | – |
| AGGPARWCLEVG | 0.7 ± 0.015 | – |
| AFLLSSIRPSLR | 0.7486 ± 0.005 | – |
| GILFFPSGGISP | 0.805 ± 0.12 | – |
| VTGRTGGMWGAL | 0.754 ± 0.085 | – |
| PPRGFDPSFQTV | 0.7 ± 0.18 | – |
| TWIRIEQKTEVR | 0.631 ± 0.017 | – |
| LRGSDYIVIGGS | 0.656 ± 0.025 | – |
| PPSLTSPRHPPT | 0.669 ± 0.022 | – |
| SLAFSVFWSIFL | 0.585 ± 0.015 | – |
| GGGNGGTGCDWG | 0.629 ± 0.018 | – |
| SSGLMGFLFPMQ | 0.721 ± 0.017 | – |
| GGVSVPSERFRS | 0.788 ± 0.044 | – |
| KRKKIQNRGKKK | 0.718 ± 0.0086 | – |
| LSSPPSPRAFLP | 0.723 ± 0.065 | – |
| GRAGEKRGGRRL | 0.66 ± 0.013 | – |
| GADPPGHSSDDS | 0.712 ± 0.11 | – |
| TPPALPPPSPPA | 0.68516 ± 0.00038 | – |
| GDFFVGLEWRDI | 0.622 ± 0.13 | – |
| LVRPRFSPPPTP | 0.6882 ± 0.0057 | – |
| VLLFALSPHPPS | 0.724 ± 0.024 | – |
| LPPGDPPPRGPP | 0.597 ± 0.045 | – |

| Sequence | protein stability index [2] | further results |
| --- | --- | --- |
| RRNGVVGRLGGV | 0.678 ± 0.032 | – |
| FRKALRIQSVGS | 0.6926 ± 0.0019 | – |
| PLPPPPSPLPHF | 0.692 ± 0.013 | – |
| SSYHPPPSCLLP | 0.74596 ± 0.00061 | – |
| ADWGLLVNRSHH | 0.725 ± 0.084 | – |
| LQAKRTAGPGEH | 0.68423 ± 0.00012 | – |
| PPLSPPALPPPL | 0.672 ± 0.0076 | – |
| RTGTIPAPFHHE | 0.675 ± 0.0074 | – |
| LSRPCPFYPPPR | 0.701 ± 0.037 | – |
| GVVRSSRRYSFR | 0.705 ± 0.034 | – |
| GGWGGRGQGWYR | 0.6673 ± 0.0055 | – |
| RLSTPPAPQRPS | 0.666 ± 0.013 | – |
| PLKKLTRIIPKL | 0.747 ± 0.1 | – |
| ISALYVPGILSK | 0.6 ± 0.018 | – |
| ADYSRHSCSSSP | 0.681 ± 0.053 | – |
| DGPSPAASPPRF | 0.757 ± 0.095 | – |
| PPPPPLPQAPPT | 0.687 ± 0.014 | – |
| EGVVGGRWCGRG | 0.676 ± 0.082 | – |
| KSRGYSKQQIRG | 0.72 ± 0.015 | – |
| RAKNRFKRQGEN | 0.667 ± 0.023 | – |
| FPRFGRGVGRRT | 0.67 ± 0.0073 | – |
| LPKTSPRSRRER | 0.6868 ± 0.0053 | – |
| DLHCRSAILALL | 0.594 ± 0.034 | – |
